Laboratory results published in paper PMC10432850, “NME3 binds to phosphatidic acid and mediates PLD6-induced mitochondrial tethering” (The Journal of Cell Biology, 2023).

B1: NME3^WT-His (natural protein, human, UniProt Q13232 1-169, looked up)
chain: MICLVLTIFANLFPAACTGAHERTFLAVKPDGVQRRLVGEIVRRFERKGFKLVALKLVQASEELLREHYAELRERPFYGRLVKYMASGPVVAMVWQGLDVVRTSRALIGATNPADAPPGTIRGDFCIEVGKNLIHGSDSVESARREIALWFRADELLCWEDSAGHWLYE
notes: NME3 (nucleoside diphosphate kinase 3), human, wild type; also called NME3-His; source: E. coli BL21, purified (HisPur Ni-NTA resin, dialysed); not shown: His, C-terminal, kept
B2: NME3^ΔN-His (domain or fragment, human, UniProt Q13232 18-169, looked up)
chain: TGAHERTFLAVKPDGVQRRLVGEIVRRFERKGFKLVALKLVQASEELLREHYAELRERPFYGRLVKYMASGPVVAMVWQGLDVVRTSRALIGATNPADAPPGTIRGDFCIEVGKNLIHGSDSVESARREIALWFRADELLCWEDSAGHWLYE
notes: NME3 (nucleoside diphosphate kinase 3), human, lacking the N-terminal 17 amino acids (N17); also called N17 truncated NME3; source: E. coli BL21, purified (HisPur Ni-NTA resin, dialysed); not shown: His, C-terminal, kept

Target: the molecule itself
Test: cross-linking; 4 uM purified protein cross-linked with glutaraldehyde, detected by Western blotting

| Protein | binding result | stoichiometry N |
| --- | --- | --- |
| B1 | binds | – |
| B2 | – | 6 |
